In the nanobody polyreactivity screen of Harvey et al. (2022):

Assay: yeast display, Sf9 membrane polyspecificity reagent, FACS + sequencing; frameworks hold sequencing errors
Method in brief: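 A nanobody's polyreactivity label depends on the gate it was sorted from. Yeast display cells were stained with 10% biotinylated, detergent-solubilized Sf9 membrane reagent for 1 hour at 4 °C, enriched on streptavidin microbeads and sorted by FACS. The low and high (top ~1%) gates were set on anti-HA fluorescence for expression and streptavidin fluorescence for reagent binding.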

Sequence	polyreactivity (PSR sort gate)
QVQLVESGGGLVQAGGSLRLSCAASGSIFTRYAMGWYRQAPGKERELVATISKRSGSTYYADSVKGRFTISRDNAKNTVYLQMISLKPEDTAVYYCAARNSGRVKYGYWGQGSQVTVSS	high polyreactivity
QVQLVESGGGLVQAGGSLRLSCAASGSIFTRYAMGWYRQAPGKERELVAVISVSGGRTYYADSVKGRFTISRDNAKNTVYLQMNSLKPEDTAVYYCATDYYRPALDYWGQGTQVTVSS	high polyreactivity
QVQLVESGGGLVQAGGSLRLSCAASGSIFTSNAMGWYRQAPGKEWELVAAITSDGAITYADSVKRRFTISRDNAKNTVYLQMNTLKPEDTAVYYCAARIRQNPGGDNSWGQGTQVTVSS	low polyreactivity
QVQLVESGGGLVQAGGSLRLSCAASGSIFTVNTMGWYRQAPGKERELVATISKRGGRTYYADSVKGRFTISRDNAKNTVYLQMNSLKPEDTAVYYCNRVASGYPVGTSIDYGYWGQGTQVTVSS	high polyreactivity
QVQLVESGGGLVQAGGSLRLSCAASGSIFTWNGMGWYRQAPGKERELVAAISNGASTNYAESVKGRFTISRDNAKNTVYLQMNSLKPEDTAVYYCAAKSTGRYDYWGQGTQVTVSS	low polyreactivity
QVQLVESGGGLVQAGGSLRLSCAASGSIFTWYAMGWYRQAPGKERELVARINVSAGITYYADSVKGRFTISRDNAKNTVYLQMNSLKPEDTAVYYCAATGWRRPKHNYWGQGTQVTVSS	low polyreactivity
QVQLVESGGGLVQAGGSLRLSCAASGSIFTWYAMGWYRQAPGTERELVAAITRGGSTYADSVKGRFTISRDNAKNTVYLQMNSLKPEDTAVYYCNAVYGVYDFNYWGQGTQVTVSS	low polyreactivity
QVQLVESGGGLVQAGGSLRLSCAASGSIFTYKAMGWYRQAPGKERELVAAIRQRGGSTYYADSVKGRFTISRDNAKNTVYLQKNSLKPEDTAVYYCAARGSYVRSYYYYWGQGTQVTVSS	high polyreactivity
QVQLVESGGGLVQAGGSLRLSCAASGSIFTYNAMGWYRQAPGKDRELVAAIRLSGGSTYYADSVKGRFTISRDNAKNTVYLQMTSLNPEDTAVYYCAAESAAASGVYSVEYDYWGQGTQVTVSS	low polyreactivity
QVQLVESGGGLVQAGGSLRLSCAASGSIFTYNAMGWYRQAPGKERELVAAINTSGSTNYADSVKGRFTISRDNAKNTVYLQMNSLKPEDTAVYYCAAGIVVTGYAYWGQGTQVTVSA	low polyreactivity
QVQLVESGGGLVQAGGSLRLSCAASGSIFTYNVMGWYRQAPGKERELVDAISWDGDSTYYSDSVKGRFTISRDNEKNTVYLQMKSLKQDDTAVYYCAADVHEKFQYDYWGQGNQVTVSS	high polyreactivity
QVQLVESGGGLVQAGGSLRLSCAASGSIFTYYAMGWYRQATRKERELLADIRWSVGSTYYADSVKGRFTISRDNAKNTVYLQMNSLKPEDTAVYYCNAVVYIYYLTSYKYGNDSWGQGTQVTVSS	low polyreactivity
QVQLVESGGGLVQAGGSLRLSCAASGSIFTYYTMAWYRQAPGTERELVAAINGRGHSTYYADSVKGRFTISRDNAKNTVYLQMKSLKSEDTAVYYCKALGSLDGRYGYWGQGTQVTVSS	high polyreactivity
QVQLVESGGGLVQAGGSLRLSCAASGSIFVAYDMGWYRQAPGKERELVAAINFDGTSTYYADSVKGRFTISRDNAKNTVYLQMNSLKPEETAVYYCNNRVSPTYKGQYEYWGQGTQVTVSS	low polyreactivity
QVQLVESGGGLVQAGGSLRLSCAASGSIFVDYTMGWYRQAPGKERELVAAITYRGTRTYYADSVKGRFTISRDNAKNTVYLQMNSLKPEDTAVYYCNKLYRRYPVPREYDYWGQGTQVSVSS	high polyreactivity
QVQLVESGGGLVQAGGSLRLSCAASGSIFVDYVMVWYRQAPGKERELVAAISGNGGRTYYADSVKGRFTISRDNAKNTVYLQMNSLKPEDTAVYYCAKVRSVTIGRDYWGQGTQVTVSS	high polyreactivity

Sequence	polyreactivity (PSR sort gate)
QVQLVESGGGLVQAGGSLRLSCAASGSIFVFNAMGWYRQAPGKERELVAAITSGGRTYYADSVKGRFTISRDNAKNTVYLQMNSLKPEDTAVYYCAAEFWFFAGWAYEYWGQGTQVTVSS	high polyreactivity
QVQLVESGGGLVQAGGSLRLSCAASGSIFVFNAMGWYRQAPGKERELVADITRRGGSTYYADSVKGRFTISRDNAKNTVYLQMNSLKPEDTAVYYCAAANPRDHRGANDYWGQGTQVTVSS	high polyreactivity
QVQLVESGGGLVQAGGSLRLSCAASGSIFVFYAMGWYRQAPGKEREFVAAMSISGGRTYYADSVKGRFTISRDIAKNTVYLQMNSLKPEDTAVYYCAASRVYTSITLYYWGQGTQVTVSS	high polyreactivity
QVQLVESGGGLVQAGGSLRLSCAASGSIFVGKAMGWYRQAPGKERELVAAISSSGGRTYYADSVKGRFTISRDNAKNTVYLQMNSLKPEDTAVYYCAADVSYKVKSWSVYRYEYWGQGTQVTVSS	high polyreactivity
QVQLVESGGGLVQAGGSLRLSCAASGSIFVGNAMGWYRQAPGKERELVAAISSSGGRTFYADSVKWRFTISRDNAKNTVYLQMNSLKPEDTAVYYCAAVYTHWQQRMDYWGQGTQVTVSS	high polyreactivity
QVQLVESGGGLVQAGGSLRLSCAASGSIFVGNAMGWYRQAPGTERELVAAISSSGGSTYSADSVKGRFTISRDNAKNTVYLQMNSLKPEDTAVYYCAADTYSTSGYYYWGQGTQVTVSS	low polyreactivity
QVQLVESGGGLVQAGGSLRLSCAASGSIFVGNGMGWYRQAPGKERELVAAITFRSGSTYYADSVKGRFTISRDNAKNTVYFQMISMKPEDTAVSYCAADEYYQVYAYDYCGQGTQVTVSS	low polyreactivity
QVQLVESGGGLVQAGGSLRLSCAASGSIFVGNVMGWYRQAPGKERELVAAIRFSGGNTYYADSVKGRFTISRDNAKNTVYLQMNSLKPEDTAVYYCAARYGQGSYPTKYYYWGQGTQVTVSS	high polyreactivity
QVQLVESGGGLVQAGGSLRLSCAASGSIFVGYAMGWYRQAPGKEREFVAAISQRGTRTYYADSVKGRFTISRDNAKNTVYLQMNSLKPEDTAVYYCAARGWDQRSDYWGQGTQVIVSS	high polyreactivity
QVQLVESGGGLVQAGGSLRLSCAASGSIFVGYAMGWYRQAPGKERELVAAISSNGGSTYYADSVKGRFTISRDNAKNTVYLQMNSLKPEDTAVYYCAAGVRRVYASGHGAYGYWGQGTQVTVSS	low polyreactivity
QVQLVESGGGLVQAGGSLRLSCAASGSIFVGYDMGWYRQAPGKERELVAAITGTVSTYYADSVKGRFTISRDNAKNTVYLQMNSLKPEDTAVYYCAAEFVYAYGDGGVYWSWMEYWGQGTQVTVSS	low polyreactivity
QVQLVESGGGLVQAGGSLRLSCAASGSIFVHNAMGWYRQAPGKERELVAAISSNGGRTYYADSVKGRFTISRDNAKNTVYLQMNSLKPEDTAVYYCNAPRFVGLNVYGYDYWGQGTQVTVSS	high polyreactivity
QVQLVESGGGLVQAGGSLRLSCAASGSIFVHNDMGGYRQAPGTERELVATIDSAGGTYYADSVKGRFTISRDNAKYTVYLQMNSLKPEDTAVYYCAAYGPYVLSIYDYWGQGTQVTVSS	low polyreactivity
QVQLVESGGGLVQAGGSLRLSCAASGSIFVHYALGWYRQAPGKERELVAAITVTGGTTYYADSVKGRFTISRDNAKNTVYLQMNSLKPEDTAVYYCATRANDGGWTQFGHGYDYWGQGTQVTVSS	low polyreactivity
QVQLVESGGGLVQAGGSLRLSCAASGSIFVINAMGWYRQAPGKERELVAAISYSGTGTYYADSVKGRFPISRDNAKITVYLQMNSLKPEDTAVYYCAADYYYRYRIYDYWGHGTQVTVSS	low polyreactivity
QVQLVESGGGLVQAGGSLRLSCAASGSIFVIYALGWYRQAPGKERELVARITKSGGTTYYADSVKGRFTISRDNAKNTVYLQMNSLKPDDTAVYYCNVGYGGSSDGGYDYWGQGTQVTVSS	high polyreactivity
